Measured values published in patent US20140087995A1 (published 2014).
Blank lines part the entries; values can stand above or below the binder they belong to. Numbered stars: 1 amine (or outer) side, 2 acyl side, 3 side chain; on linkers, the order of the positions; unused ones are H or OH. Bridge positions count the residues as written; N and C are the ends. Side chains are listed from the residue outwards. Ends that are not written are not given here. * marks the point of attachment. C20 diacid = O=C(O)CCCCCCCCCCCCCCCCCCC(=O)*; γGlu = O=C(O)[C@H](CCC(=O)[*:2])N[*:1]; AEEA = NCCOCCOCC(=O)O

What was measured:
[1] = target: T1, human calcitonin receptor (human, UniProt P30988 25-474); assay: IC50 on human CTR divided by IC50 on human amylin receptor (Assays VII/V)
T1 construct: whole, on cells; Used as membranes prepared from a BHK tk'ts 13 cell line stably transfected with the human calcitonin receptor (Assay VII); also called hCTR; hCT
T1 sequence (looked up): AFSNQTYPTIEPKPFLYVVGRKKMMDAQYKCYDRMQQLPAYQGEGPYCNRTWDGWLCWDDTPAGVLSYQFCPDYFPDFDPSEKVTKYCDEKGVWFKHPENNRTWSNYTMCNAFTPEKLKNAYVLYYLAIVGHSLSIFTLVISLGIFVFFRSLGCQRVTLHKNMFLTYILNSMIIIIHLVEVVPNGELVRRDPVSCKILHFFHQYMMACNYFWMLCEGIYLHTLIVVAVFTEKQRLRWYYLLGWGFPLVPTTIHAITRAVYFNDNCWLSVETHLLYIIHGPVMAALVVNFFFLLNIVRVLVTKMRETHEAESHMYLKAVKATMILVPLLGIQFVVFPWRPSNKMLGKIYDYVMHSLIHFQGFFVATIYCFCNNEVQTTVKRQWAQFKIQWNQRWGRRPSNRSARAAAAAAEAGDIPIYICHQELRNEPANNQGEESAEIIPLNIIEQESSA
Experimental: The resulting pellet was resuspended, homogenized and centrifuged (20.000 rpm, 15 min) in a buffer containing 20 mM Na-HEPES and 0.1 mM EDTA (pH 7.4, buffer 2). The resulting pellet was resuspended in buffer 2 and protein concentration was measured (BCA protein Assay, Pierce). The homogenate was kept cold during the whole procedure. The membranes were kept at −80° C. until use. The assay was performed in a 384 well Optiplate (PerkinElmer) in a total volume of 40 ul. Membranes were mixed with SPA beads. Final concentration of membranes 35 ng/μL final and SPA beads was 0.05 mg/well. Test-compounds were dissolved in DMSO and further diluted in assay buffer (50 mM Hepes, pH 7.4, 1 mM CaCl2, 5 mM MgCl₂, 0.1% OA and 0.02% Tween20). […] The final mixture was incubated with shaking at 400 rpm for 120 min at 25° C. prior to centrifugation (1500 rpm, 10 min). Samples were analyzed on TopCounter™ (Packard). The IC₅₀ was calculated using (one site binding competition analysis) GraphPad Prism5 as a measure of receptor affinity.
Membranes were prepared in the following way; the cells were rinsed with PBS and incubated with Versene for approximately 5 min before harvesting. The cells were flushed with PBS and the cell-suspension was centrifuged for 5 min at 1000 rpm. Cells were homogenized (Ultrathurrax) in a buffer containing 20 mM Na-HEPES and 10 mM EDTA (pH 7.4) and centrifuged at 20.000 rpm for 15 min. The resulting pellet was resuspended, homogenized and centrifuged (20.000 rpm, 15 min) in a buffer containing 20 mM Na-HEPES and 0.1 mM EDTA (pH 7.4, buffer 2). The resulting pellet was resuspended in buffer 2 and protein concentration was measured (BCA protein Assay, Pierce). The homogenate was kept cold during the whole procedure. The membranes were kept at −80° C. until use. Assay was performed in a 384 well Optiplate (PerkinElmer) in a total volume of 40 ul. Membranes were mixed with SPA beads.

[2] = target: T2, rat calcitonin receptor (rat, UniProt P32214 25-516); assay: IC50 on rat CTR divided by IC50 on rat amylin receptor (Assays VIII/VI)
T2 construct: whole, on cells; Used as membranes prepared from BHK tk'ts 13 cells transiently transfected with the rat calcitonin receptor (Assay VIII); also called rCTR; rat calcitonin (a) receptor
T2 sequence (looked up): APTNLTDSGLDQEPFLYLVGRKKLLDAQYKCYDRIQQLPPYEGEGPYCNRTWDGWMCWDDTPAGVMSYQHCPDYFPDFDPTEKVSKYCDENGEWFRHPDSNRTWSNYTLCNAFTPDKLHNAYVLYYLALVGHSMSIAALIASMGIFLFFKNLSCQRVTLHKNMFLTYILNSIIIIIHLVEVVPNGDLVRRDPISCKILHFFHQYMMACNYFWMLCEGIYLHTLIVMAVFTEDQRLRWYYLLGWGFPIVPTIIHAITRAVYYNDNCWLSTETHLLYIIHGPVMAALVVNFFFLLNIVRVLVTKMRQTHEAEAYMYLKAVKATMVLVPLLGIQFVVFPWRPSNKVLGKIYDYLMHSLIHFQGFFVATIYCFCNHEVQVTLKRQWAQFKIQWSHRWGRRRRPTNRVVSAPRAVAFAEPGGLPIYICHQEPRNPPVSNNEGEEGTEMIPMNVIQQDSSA

[3] = target: T3, rat amylin receptor (rat calcitonin receptor + rat RAMP 3) (rat, UniProt P32214 25-516; Q9JJ73 23-147); assay: SPA competition with 125I-rat amylin, membranes of BHK cells with rat CTR + rat RAMP3 (Assay VI)
T3 construct: whole, on cells; Used as membranes prepared from BHK tk'ts 13 cells transiently transfected with rat calcitonin receptor and rat RAMP 3 (Assay VI); also called rAmylin-R; rat amylin 3(a) receptor
T3 sequence (looked up) 1: T2 sequence (looked up)
T3 sequence (looked up) 2: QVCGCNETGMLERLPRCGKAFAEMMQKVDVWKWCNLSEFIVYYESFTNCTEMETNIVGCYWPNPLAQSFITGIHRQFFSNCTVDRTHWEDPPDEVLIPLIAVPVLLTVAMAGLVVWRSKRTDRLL
Experimental: The binding assay was performed using scintillation proximity assay (SPA) beads (RPNQ0001) from PerkinElmer and cell membranes from the Amylin 3(a)/CRE-luc cells (as described in Assay (II)) were used. Membranes were prepared in the following way; the cells were rinsed with PBS and incubated with Versene for approximately 5 min before harvesting. The cells were flushed with PBS and the cell-suspension was centrifuged for 5 min at 1000 rpm. Cells were homogenized (ultrathurrax) in a buffer containing 20 mM Na-HEPES and 10 mM EDTA (pH 7.4) and centrifuged at 20.000 rpm for 15 min. The resulting pellet was resuspended, homogenized and centrifuged (20.000 rpm, 15 min) in a buffer containing 20 mM Na-HEPES and 0.1 mM EDTA (pH 7.4, buffer 2). The resulting pellet was resuspended in buffer 2 and protein concentration was measured (BCA protein Assay, Pierce). The homogenate was kept cold during the whole procedure. The membranes were kept at −80° C. until use. The assay was performed in a 384 well Optiplate (PerkinElmer) in a total volume of 40 ul. Membranes were mixed with SPA beads. Final concentration of membranes 35 ng/μL final and SPA beads was 0.05 mg/well. Test-compounds were dissolved in DMSO and further diluted in assay buffer (50 mM Hepes, pH 7.4, 1 mM CaCl2, 5 mM MgCl₂, 0.1% OA and 0.02% Tween20). […] The final mixture was incubated with shaking at 400 rpm for 120 min at 25° C. prior to centrifugation (1500 rpm, 10 min). Samples were analyzed on TopCounter™ (Packard). The IC₅₀ was calculated using (one site binding competition analysis) GraphPad Prism5 as a measure of receptor affinity.
Cells were grown in DMEM with 10% FBS and 1% Pen/Strep. Approximately 48 hours after transfection, the cells were harvested and membranes were prepared.

[4] = target: T2, rat calcitonin receptor; assay: SPA competition with 125I-calcitonin, membranes of BHK cells with rat CTR (Assay VIII)

Ratio hCT/hAmylin binding [1]: 126 | Ratio rCT/rAmylin binding [2]: 64.7 | IC50 [3]: 1.97 nM | IC50 [4]: 128 nM
B1: N^ε1-[2-[2-[2-[[(4S)-4-carboxy-4-(19-carboxynonadecanoylamino)butanoyl]amino]ethoxy]ethoxy]acetyl]-[Arg14,Arg17,Pro21,Pro27,Pro31]-h-amylin (peptide)
peptide: K([AEEA-γGlu-C20 diacid])CNTATCATQRLARFLRHSSPNFGAIPSSTPVGSNTY-NH2
modifications: disulfide 2-7; N-terminus assumed
SMILES: CC[C@H](C)[C@H](NC(=O)[C@H](C)NC(=O)CNC(=O)[C@H](Cc1ccccc1)NC(=O)[C@H](CC(N)=O)NC(=O)[C@@H]1CCCN1C(=O)[C@H](CO)NC(=O)[C@H](CO)NC(=O)[C@H](Cc1c[nH]cn1)NC(=O)[C@H](CCCNC(=N)N)NC(=O)[C@H](CC(C)C)NC(=O)[C@H](Cc1ccccc1)NC(=O)[C@H](CCCNC(=N)N)NC(=O)[C@H](C)NC(=O)[C@H](CC(C)C)NC(=O)[C@H](CCCNC(=N)N)NC(=O)[C@H](CCC(N)=O)NC(=O)[C@@H](NC(=O)[C@H](C)NC(=O)[C@@H]1CSSC[C@H](NC(=O)[C@@H](N)CCCCNC(=O)COCCOCCNC(=O)CC[C@H](NC(=O)CCCCCCCCCCCCCCCCCCC(=O)O)C(=O)O)C(=O)N[C@@H](CC(N)=O)C(=O)N[C@@H]([C@@H](C)O)C(=O)N[C@@H](C)C(=O)N[C@@H]([C@@H](C)O)C(=O)N1)[C@@H](C)O)C(=O)N1CCC[C@H]1C(=O)N[C@@H](CO)C(=O)N[C@@H](CO)C(=O)N[C@H](C(=O)N1CCC[C@H]1C(=O)N[C@H](C(=O)NCC(=O)N[C@@H](CO)C(=O)N[C@@H](CC(N)=O)C(=O)N[C@H](C(=O)N[C@@H](Cc1ccc(O)cc1)C(N)=O)[C@@H](C)O)C(C)C)[C@@H](C)O
notes: Analogue of human amylin; also called compound 64

Ratio hCT/hAmylin binding [1]: 60.7 | Ratio rCT/rAmylin binding [2]: 69.9 | IC50 [3]: 1.3 nM | IC50 [4]: 90.6 nM
B2: N^ε1-[2-[2-[2-[[(4S)-4-carboxy-4-(19-carboxynonadecanoylamino)butanoyl]amino]ethoxy]ethoxy]acetyl]-[Arg17,Pro21,Pro27,Arg34]-h-amylin (peptide)
peptide: K([AEEA-γGlu-C20 diacid])CNTATCATQRLANFLRHSSPNFGAIPSSTNVGRNTY-NH2
modifications: disulfide 2-7; N-terminus assumed
SMILES: CC[C@H](C)[C@H](NC(=O)[C@H](C)NC(=O)CNC(=O)[C@H](Cc1ccccc1)NC(=O)[C@H](CC(N)=O)NC(=O)[C@@H]1CCCN1C(=O)[C@H](CO)NC(=O)[C@H](CO)NC(=O)[C@H](Cc1c[nH]cn1)NC(=O)[C@H](CCCNC(=N)N)NC(=O)[C@H](CC(C)C)NC(=O)[C@H](Cc1ccccc1)NC(=O)[C@H](CC(N)=O)NC(=O)[C@H](C)NC(=O)[C@H](CC(C)C)NC(=O)[C@H](CCCNC(=N)N)NC(=O)[C@H](CCC(N)=O)NC(=O)[C@@H](NC(=O)[C@H](C)NC(=O)[C@@H]1CSSC[C@H](NC(=O)[C@@H](N)CCCCNC(=O)COCCOCCNC(=O)CC[C@H](NC(=O)CCCCCCCCCCCCCCCCCCC(=O)O)C(=O)O)C(=O)N[C@@H](CC(N)=O)C(=O)N[C@@H]([C@@H](C)O)C(=O)N[C@@H](C)C(=O)N[C@@H]([C@@H](C)O)C(=O)N1)[C@@H](C)O)C(=O)N1CCC[C@H]1C(=O)N[C@@H](CO)C(=O)N[C@@H](CO)C(=O)N[C@H](C(=O)N[C@@H](CC(N)=O)C(=O)N[C@H](C(=O)NCC(=O)N[C@@H](CCCNC(=N)N)C(=O)N[C@@H](CC(N)=O)C(=O)N[C@H](C(=O)N[C@@H](Cc1ccc(O)cc1)C(N)=O)[C@@H](C)O)C(C)C)[C@@H](C)O
notes: Analogue of human amylin; also called compound 78

Ratio hCT/hAmylin binding [1]: 140 | Ratio rCT/rAmylin binding [2]: 87 | IC50 [3]: 1.64 nM | IC50 [4]: 143 nM
B3: N^ε1-[2-[2-[2-[[(4S)-4-carboxy-4-(19-carboxynonadecanoylamino)butanoyl]amino]ethoxy]ethoxy]acetyl]-[Arg14,Arg17,Pro21,Pro27]-h-amylin (peptide)
peptide: K([AEEA-γGlu-C20 diacid])CNTATCATQRLARFLRHSSPNFGAIPSSTNVGSNTY-NH2
modifications: disulfide 2-7; N-terminus assumed
SMILES: CC[C@H](C)[C@H](NC(=O)[C@H](C)NC(=O)CNC(=O)[C@H](Cc1ccccc1)NC(=O)[C@H](CC(N)=O)NC(=O)[C@@H]1CCCN1C(=O)[C@H](CO)NC(=O)[C@H](CO)NC(=O)[C@H](Cc1c[nH]cn1)NC(=O)[C@H](CCCNC(=N)N)NC(=O)[C@H](CC(C)C)NC(=O)[C@H](Cc1ccccc1)NC(=O)[C@H](CCCNC(=N)N)NC(=O)[C@H](C)NC(=O)[C@H](CC(C)C)NC(=O)[C@H](CCCNC(=N)N)NC(=O)[C@H](CCC(N)=O)NC(=O)[C@@H](NC(=O)[C@H](C)NC(=O)[C@@H]1CSSC[C@H](NC(=O)[C@@H](N)CCCCNC(=O)COCCOCCNC(=O)CC[C@H](NC(=O)CCCCCCCCCCCCCCCCCCC(=O)O)C(=O)O)C(=O)N[C@@H](CC(N)=O)C(=O)N[C@@H]([C@@H](C)O)C(=O)N[C@@H](C)C(=O)N[C@@H]([C@@H](C)O)C(=O)N1)[C@@H](C)O)C(=O)N1CCC[C@H]1C(=O)N[C@@H](CO)C(=O)N[C@@H](CO)C(=O)N[C@H](C(=O)N[C@@H](CC(N)=O)C(=O)N[C@H](C(=O)NCC(=O)N[C@@H](CO)C(=O)N[C@@H](CC(N)=O)C(=O)N[C@H](C(=O)N[C@@H](Cc1ccc(O)cc1)C(N)=O)[C@@H](C)O)C(C)C)[C@@H](C)O
notes: Analogue of human amylin; also called compound 82
